# Measurements from patent publication US5831003A, “Peptides which bind to prothrombin and thrombin” (Bayer Corporation, priority 1996, dated 1998).
# Ends that are not written are not given here.
# Experiments:
# α-thrombin [1] = biological target: T1, α-thrombin (Homo sapiens, UniProt P00734); experiment: Confirmatory binding assay in column chromatographic format, peptides synthesized on A-Totda-Toyopearl; conditions: for binding of thrombin to peptide resin (in words): summary of Table 2
# T1 construct: α-Thrombin is the active form of the plasma serine protease zymogen, prothrombin; purchased Enzyme Research Labs (South Bend, Ind.)
# Procedure: Confirmatory binding assays were performed in a column chromatographic format on a microbore HPLC using individual peptide sequences synthesized directly onto the Toyopearl 650 M Chelate resin which had been modified with Totda followed by an alanine residue (A-Totda-Toyopearl), at a final substitution density of 0.2 mmol/g resin. […] The endpoint was a dose-dependent increase in the acid eluate in the thrombin contactings, and quantification was by integration of the absorbance at 280 nm.
# α-thrombin [2] = biological target: T1, α-thrombin; experiment: Purification of α-thrombin from activated PTC eluate on YFPGPYL-Totda-Toyopearl; format: binding
# Procedure: Human pooled plasma was processed to PTC eluate by standard manufacturing procedures as indicated in Example 1. A sample of the PTC eluate was activated in the presence of 50 mM CaCl2 for 6 days at 4° C. Approximately 1 ml of the activated PTC eluate, spiked with 300 μg α-thrombin, was injected onto the peptide resin YFPGPYL-Totda-Toyopearl (FIG. 6). The column was washed with equilibration buffer (10 mM HEPES, pH 6.5, 10 mM CaCl2, 500 mM NaCl, 0.1% (v/v) PEG-400) until the A280 returned to base-line. […] Acid treatment (2% acetic acid) was used as a cleaning step to remove protein still bound to the column.
# [3] = 50 μg α-thrombin applied, integration of A280
# [4] = 100 μg α-thrombin applied, integration of A280
# [5] = 200 μg α-thrombin applied, integration of A280
Substance,"Absorbance, 280 nm 1M NaCl Eluate (α-thrombin [1]; [3])","Absorbance, 280 nm 2% Acetic Acid (α-thrombin [1]; [3])","Absorbance, 280 nm 1M NaCl Eluate (α-thrombin [1]; [4])","Absorbance, 280 nm 2% Acetic Acid (α-thrombin [1]; [4])","Absorbance, 280 nm 1M NaCl Eluate (α-thrombin [1]; [5])","Absorbance, 280 nm 2% Acetic Acid (α-thrombin [1]; [5])",binding of thrombin to peptide resin (in words) (α-thrombin [1]),"thrombin content of protein released by 1 mM sodium citrate pH 7.0 (α-thrombin [2]; quantitative scanning of SDS-PAGE, activated PTC eluate spiked with 300 μg α-thrombin)",binding of thrombin from activated PTC eluate (in words) (α-thrombin [2]; released by 1 mM sodium citrate pH 7.0),"Absorbance, 280 nm 2% Acetic Acid (α-thrombin [1]; 50 μg α-thrombin applied in a solution containing 5 mg/ml hSA)","Absorbance, 280 nm 2% Acetic Acid (α-thrombin [1]; 100 μg α-thrombin applied in a solution containing 5 mg/ml hSA)","Absorbance, 280 nm 2% Acetic Acid (α-thrombin [1]; 200 μg α-thrombin applied in a solution containing 5 mg/ml hSA)","dose dependence of thrombin in the acid eluant (in words) (α-thrombin [1]; 50, 100 and 200 μg α-thrombin)"
YTPFAV (not fully specified (C-terminus)) [peptide synthesized on A-Totda-Toyopearl resin],np,0.16,np,0.28,np,0.34,bound thrombin,–,–,–,–,–,–
FEPANP (not fully specified (C-terminus)) [peptide synthesized on A-Totda-Toyopearl resin],0.00,0.15,0.00,0.29,0.10,0.45,bound thrombin,–,–,–,–,–,–
PFPYGW (not fully specified (C-terminus)) [peptide synthesized on A-Totda-Toyopearl resin],np,0.47,np,0.79,np,1.37,bound thrombin,–,–,–,–,–,–
LTPFAV (not fully specified (C-terminus)) [peptide synthesized on A-Totda-Toyopearl resin],np,0.00,np,0.00,np,0.00,–,–,–,–,–,–,–
SVRPFL (not fully specified (C-terminus)) [peptide synthesized on A-Totda-Toyopearl resin],np,0.57,np,0.71,np,2.06,bound thrombin,–,–,–,–,–,–
GFRNGP [GERNGP],0.00,0.71,0.00,1.42,0.13,2.73,bound thrombin,–,–,–,–,–,–
LFAPTL,np,0.18,np,0.44,np,1.25,bound thrombin,–,–,–,–,–,–
VTPFAV (not fully specified (C-terminus)) [peptide synthesized on A-Totda-Toyopearl resin],np,0.00,np,0.00,np,0.00,–,–,–,–,–,–,–
YFPGPYL (not fully specified (C-terminus)),–,–,–,–,–,–,bound thrombin,at least 72%,thrombin bound,2.10,2.93,4.72,dose dependent increase
PFPYAW (not fully specified (C-terminus)) [peptide synthesized on A-Totda-Toyopearl resin],np,0.50,np,1.05,np,1.10,bound thrombin,–,–,–,–,–,–
